Experimental findings from patent publication US20100015126A1, “Methods of Binding of Cross-Beta Structures By Chaperones” (priority 2006, published 2010) are described below.

Assay in all cases: BiP-Sepharose pull-down, RA synovial fluid sample 1B, 1 M NaCl eluate, MS; may be indirect
Experiment [1] concerns the target Apolipoprotein A-I precursor (human) (UniProt P02647).
Experiment [2] concerns the target Apolipoprotein A-II precursor (human) (UniProt P02652).
For experiment [3], the target named is Apolipoprotein E precursor/Apolipoprotein E/Apolipoprotein E3 (Fragment) (human) (UniProt P02649).
Chain of Apolipoprotein E precursor/Apolipoprotein E/Apolipoprotein E3 (Fragment) (human) (P02649 19-317 limits assumed): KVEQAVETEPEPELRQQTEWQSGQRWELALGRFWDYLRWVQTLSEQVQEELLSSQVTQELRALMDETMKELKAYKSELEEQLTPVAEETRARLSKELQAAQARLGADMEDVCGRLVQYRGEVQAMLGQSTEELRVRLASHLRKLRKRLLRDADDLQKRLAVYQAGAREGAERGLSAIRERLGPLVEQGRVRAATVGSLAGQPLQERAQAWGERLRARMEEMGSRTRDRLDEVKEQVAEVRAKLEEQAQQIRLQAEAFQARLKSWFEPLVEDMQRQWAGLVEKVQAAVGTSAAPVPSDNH
Experiment [4] addresses FLJ00385 protein (Fragment), immunoglobulin heavy constant mu (human) (UniProt P01871).
The target of experiment [5] is Galectin-3-binding protein precursor (human) (UniProt Q08380).
Chain of Galectin-3-binding protein precursor (human) (Q08380 19-585 limits assumed): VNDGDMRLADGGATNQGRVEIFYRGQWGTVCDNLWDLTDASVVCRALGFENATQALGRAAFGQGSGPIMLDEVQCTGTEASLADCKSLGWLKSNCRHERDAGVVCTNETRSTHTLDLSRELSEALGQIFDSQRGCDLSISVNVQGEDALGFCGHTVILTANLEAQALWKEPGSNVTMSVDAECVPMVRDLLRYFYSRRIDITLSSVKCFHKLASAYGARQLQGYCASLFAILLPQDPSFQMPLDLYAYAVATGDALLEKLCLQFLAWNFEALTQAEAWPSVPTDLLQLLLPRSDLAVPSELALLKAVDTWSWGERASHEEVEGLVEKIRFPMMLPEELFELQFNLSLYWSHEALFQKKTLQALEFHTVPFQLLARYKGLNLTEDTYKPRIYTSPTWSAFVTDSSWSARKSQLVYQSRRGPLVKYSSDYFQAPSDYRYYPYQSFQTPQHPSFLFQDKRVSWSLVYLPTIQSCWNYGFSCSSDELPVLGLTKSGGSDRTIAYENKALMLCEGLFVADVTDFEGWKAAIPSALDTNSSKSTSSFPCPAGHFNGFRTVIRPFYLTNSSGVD
In experiment [6] the target is Haptoglobin precursor (human) (UniProt P00738).
Chain of Haptoglobin precursor (human) (P00738 19-406 limits assumed): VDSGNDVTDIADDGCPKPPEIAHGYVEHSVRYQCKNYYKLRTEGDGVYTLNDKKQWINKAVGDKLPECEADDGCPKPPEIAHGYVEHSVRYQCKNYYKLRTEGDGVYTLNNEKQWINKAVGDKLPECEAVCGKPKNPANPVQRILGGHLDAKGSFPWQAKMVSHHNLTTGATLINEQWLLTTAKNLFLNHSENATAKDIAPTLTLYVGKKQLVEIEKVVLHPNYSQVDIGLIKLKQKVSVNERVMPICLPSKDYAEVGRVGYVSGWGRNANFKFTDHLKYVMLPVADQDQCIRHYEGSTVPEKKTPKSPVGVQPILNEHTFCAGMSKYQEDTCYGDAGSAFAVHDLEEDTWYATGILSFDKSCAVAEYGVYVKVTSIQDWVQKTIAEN
Experiment [7] has as its target Histone H2B type 2-E (human) (UniProt Q16778).
Experiment [8] deals with IGHM protein, coagulation factor VII (serum prothrombin conversion accelerator) (human) (UniProt P08709).
Experiment [9] has as its target IGKV1-5 protein, immunoglobulin kappa variable 1-5 (human) (UniProt P01602).
For experiment [10], the target named is Isoform A of Proteoglycan-4 precursor (human) (UniProt Q92954).
In experiment [11] the target is Single-chain Fv (Fragment), Ig heavy chain V-III region TRO (human) (UniProt P01762).
Chain of Single-chain Fv (Fragment), Ig heavy chain V-III region TRO (human) (P01762 20-117 limits assumed): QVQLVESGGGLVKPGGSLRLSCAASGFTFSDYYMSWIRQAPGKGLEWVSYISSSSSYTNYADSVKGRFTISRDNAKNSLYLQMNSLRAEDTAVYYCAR
Experiment [12] concerns the target Vitronectin precursor (Serum-spreading factor/S-protein) (human) (UniProt P04004).
In experiment [13] the target is fibronectin 1 isoform 4 preproprotein (human) (UniProt P02751).

Chain of recombinant human BiP with C-terminal linker, FLAG-tag and His-tag (BiP-FLAG-His) (P11021 other isoform, or with tags, fused parts or gaps): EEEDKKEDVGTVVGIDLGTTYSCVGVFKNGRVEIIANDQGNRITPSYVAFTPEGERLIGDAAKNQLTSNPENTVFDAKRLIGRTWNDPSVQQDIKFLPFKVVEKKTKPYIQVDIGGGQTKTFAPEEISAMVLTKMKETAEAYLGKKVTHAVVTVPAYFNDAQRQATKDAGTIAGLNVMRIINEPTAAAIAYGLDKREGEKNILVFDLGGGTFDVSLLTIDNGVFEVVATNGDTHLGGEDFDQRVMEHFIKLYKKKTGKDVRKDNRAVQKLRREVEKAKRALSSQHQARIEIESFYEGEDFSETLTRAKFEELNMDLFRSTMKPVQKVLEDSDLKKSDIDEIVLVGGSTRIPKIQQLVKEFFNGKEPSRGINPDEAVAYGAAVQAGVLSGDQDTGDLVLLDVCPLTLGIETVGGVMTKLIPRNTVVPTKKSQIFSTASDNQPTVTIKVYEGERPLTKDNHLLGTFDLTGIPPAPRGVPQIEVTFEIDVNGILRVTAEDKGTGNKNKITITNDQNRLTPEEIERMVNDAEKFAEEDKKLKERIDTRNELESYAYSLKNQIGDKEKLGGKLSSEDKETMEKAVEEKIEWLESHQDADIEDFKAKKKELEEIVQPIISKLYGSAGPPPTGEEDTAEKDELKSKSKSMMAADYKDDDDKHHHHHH
Chain of Vitronectin precursor (Serum-spreading factor/S-protein) (human) (P04004 20-478 limits assumed): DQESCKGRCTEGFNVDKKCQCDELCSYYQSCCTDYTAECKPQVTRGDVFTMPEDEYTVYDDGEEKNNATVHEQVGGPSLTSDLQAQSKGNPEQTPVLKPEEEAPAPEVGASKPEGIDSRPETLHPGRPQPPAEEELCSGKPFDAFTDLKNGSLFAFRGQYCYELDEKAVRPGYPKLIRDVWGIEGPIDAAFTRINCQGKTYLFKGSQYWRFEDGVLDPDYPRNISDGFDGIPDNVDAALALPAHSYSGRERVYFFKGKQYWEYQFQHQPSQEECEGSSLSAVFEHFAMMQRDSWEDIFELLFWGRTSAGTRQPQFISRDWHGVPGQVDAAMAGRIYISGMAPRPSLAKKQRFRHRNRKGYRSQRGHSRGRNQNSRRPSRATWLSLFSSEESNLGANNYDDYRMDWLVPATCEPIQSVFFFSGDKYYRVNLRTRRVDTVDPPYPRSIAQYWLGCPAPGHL
Chain of IGKV1-5 protein, immunoglobulin kappa variable 1-5 (human) (P01602 23-117 limits assumed): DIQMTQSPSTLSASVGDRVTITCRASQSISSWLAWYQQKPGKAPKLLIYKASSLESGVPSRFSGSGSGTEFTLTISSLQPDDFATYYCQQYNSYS
Chain of Apolipoprotein A-II precursor (human) (P02652 24-100 limits assumed): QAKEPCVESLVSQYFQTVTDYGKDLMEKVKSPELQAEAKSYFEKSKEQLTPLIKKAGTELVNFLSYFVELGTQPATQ
Chain of Apolipoprotein A-I precursor (human) (P02647 25-267 limits assumed): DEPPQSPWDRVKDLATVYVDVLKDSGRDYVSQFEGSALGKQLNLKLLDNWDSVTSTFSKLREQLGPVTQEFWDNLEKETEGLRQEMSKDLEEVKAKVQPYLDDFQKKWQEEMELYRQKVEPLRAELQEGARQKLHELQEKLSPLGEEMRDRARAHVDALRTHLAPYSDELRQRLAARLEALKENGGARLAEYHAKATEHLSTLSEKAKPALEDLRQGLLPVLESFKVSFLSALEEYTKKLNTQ
Chain of FLJ00385 protein (Fragment), immunoglobulin heavy constant mu (human) (P01871 other isoform, or with tags, fused parts or gaps limits assumed): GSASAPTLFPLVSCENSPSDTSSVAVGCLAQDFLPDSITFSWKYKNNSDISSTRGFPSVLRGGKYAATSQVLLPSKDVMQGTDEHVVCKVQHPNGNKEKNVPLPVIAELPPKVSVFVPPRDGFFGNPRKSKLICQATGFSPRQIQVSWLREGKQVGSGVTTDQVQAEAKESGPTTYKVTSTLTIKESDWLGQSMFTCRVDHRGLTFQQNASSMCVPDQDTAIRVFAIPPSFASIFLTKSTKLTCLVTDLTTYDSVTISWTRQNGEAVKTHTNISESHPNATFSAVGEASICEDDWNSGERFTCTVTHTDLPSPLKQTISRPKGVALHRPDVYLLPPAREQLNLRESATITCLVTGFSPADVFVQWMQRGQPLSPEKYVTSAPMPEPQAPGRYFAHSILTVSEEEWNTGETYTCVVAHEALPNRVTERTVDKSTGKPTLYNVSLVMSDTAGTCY

“recombinant human BiP with C-terminal linker, FLAG-tag and His-tag (BiP-FLAG-His) (from UniProt P11021 19-654)”: the # of unique peptides in experiment [1] worked out at 3 peptides; in [2], 1 peptides; in experiment [3] it was 1 peptides; in experiment [4] it was 1 peptides; in experiment [5], 1 peptides; in [6], 1 peptides. The # of unique peptides in experiment [7] worked out at 2 peptides; in [8], 2 peptides; in experiment [9], 3 peptides; in experiment [10], 2 peptides; in [11], 2 peptides; in [12], 1 peptides. The substance also returned a # of unique peptides in [13] of 10 peptides.
